Data from publication PMC6476931.

Biological target: Human fibrinogen (human) (UniProt P02671)
Assay: ELISA; Fg coated on wells (5 μg/ml, 0.5 μg/well); GST-vWbp or GST-Coa proteins in 1% BSA, 0.05% Tween 20, TBS, 1 h at room temperature; detected with HRP anti-GST; one-site fit, apparent KD, mean of three experiments

Chain of Human fibrinogen (human) (P02671 36-866, chain 1 of 3): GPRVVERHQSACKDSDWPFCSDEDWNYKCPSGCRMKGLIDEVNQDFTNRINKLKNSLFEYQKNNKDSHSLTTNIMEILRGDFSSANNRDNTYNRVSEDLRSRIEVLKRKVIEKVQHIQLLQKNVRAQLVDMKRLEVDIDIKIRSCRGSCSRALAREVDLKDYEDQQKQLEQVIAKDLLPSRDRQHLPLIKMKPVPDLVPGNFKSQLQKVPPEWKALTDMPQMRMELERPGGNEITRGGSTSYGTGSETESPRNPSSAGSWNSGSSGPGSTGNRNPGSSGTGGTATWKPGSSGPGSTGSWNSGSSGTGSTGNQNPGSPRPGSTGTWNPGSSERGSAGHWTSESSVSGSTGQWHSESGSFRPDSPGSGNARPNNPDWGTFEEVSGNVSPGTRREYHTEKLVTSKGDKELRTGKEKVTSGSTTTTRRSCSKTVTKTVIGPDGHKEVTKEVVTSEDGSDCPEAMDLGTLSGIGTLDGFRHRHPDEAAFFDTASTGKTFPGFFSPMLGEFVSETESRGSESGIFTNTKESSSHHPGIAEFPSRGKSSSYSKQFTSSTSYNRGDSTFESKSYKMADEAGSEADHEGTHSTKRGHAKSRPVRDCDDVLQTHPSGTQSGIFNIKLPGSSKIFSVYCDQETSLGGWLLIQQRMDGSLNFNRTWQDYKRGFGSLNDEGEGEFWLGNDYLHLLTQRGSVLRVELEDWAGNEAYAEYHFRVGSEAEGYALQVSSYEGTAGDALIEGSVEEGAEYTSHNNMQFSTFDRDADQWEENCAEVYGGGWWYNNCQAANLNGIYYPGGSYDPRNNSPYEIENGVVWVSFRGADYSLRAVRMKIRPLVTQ
Chain of Human fibrinogen (human) (P02675 45-491, chain 2 of 3, further chain): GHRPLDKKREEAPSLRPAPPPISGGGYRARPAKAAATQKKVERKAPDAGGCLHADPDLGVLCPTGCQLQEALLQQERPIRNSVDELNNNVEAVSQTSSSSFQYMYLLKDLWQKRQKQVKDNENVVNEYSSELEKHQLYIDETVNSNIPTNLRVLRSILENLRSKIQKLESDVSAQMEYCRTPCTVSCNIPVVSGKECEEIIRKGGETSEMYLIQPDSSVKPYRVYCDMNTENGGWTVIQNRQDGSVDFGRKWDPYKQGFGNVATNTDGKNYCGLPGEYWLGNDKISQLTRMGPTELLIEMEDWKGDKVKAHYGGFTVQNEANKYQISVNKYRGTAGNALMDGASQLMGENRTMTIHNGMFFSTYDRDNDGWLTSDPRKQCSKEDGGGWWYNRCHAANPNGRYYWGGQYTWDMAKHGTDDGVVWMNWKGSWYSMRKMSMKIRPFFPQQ
Chain of Human fibrinogen (human) (P02679 27-453, chain 3 of 3, further chain): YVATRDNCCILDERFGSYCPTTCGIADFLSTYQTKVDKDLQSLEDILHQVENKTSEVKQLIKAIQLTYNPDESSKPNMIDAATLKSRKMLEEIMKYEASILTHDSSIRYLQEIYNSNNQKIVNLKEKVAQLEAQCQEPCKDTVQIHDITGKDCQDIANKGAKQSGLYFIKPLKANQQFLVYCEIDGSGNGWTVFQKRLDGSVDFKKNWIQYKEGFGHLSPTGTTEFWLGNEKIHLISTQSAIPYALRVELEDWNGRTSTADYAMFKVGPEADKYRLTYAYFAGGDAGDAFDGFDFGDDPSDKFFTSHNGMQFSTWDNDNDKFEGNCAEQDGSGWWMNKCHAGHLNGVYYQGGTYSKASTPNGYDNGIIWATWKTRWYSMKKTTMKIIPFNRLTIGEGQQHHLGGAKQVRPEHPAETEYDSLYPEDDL

Row | Substance | Kd
1 | GST-vWbp-C (C-terminal half of vWbp) (domain or fragment) | 38 nM
2 | GST-vWbp-N (N-terminal half of vWbp) (domain or fragment) | 3.2 nM
